We go through one molecule from patent US20150125516, “TRANSFERRIN RECEPTOR APTAMERS AND APTAMER-TARGETED DELIVERY” (ALBERT EINSTEIN COLLEGE OF MEDICINE OF YESHIVA UNIVERSITY, published 2015).

The target in series [1] is transferrin receptor (TfR, CD71), native on human cells (Homo sapiens, UniProt P02786 P02786:1-760). The series can be described thus: flow; apparent, Jurkat cells, RPMI 10% FBS, tRNA and ssDNA, 37 C 1 h; no staining of ATP-arrested cells. Particulars: chain copies: 2 inferred; label: 32P (filter), AF488 or Atto647N (cells); stem with 12-nt asymmetric bulge, C-rich bulge, GNRA tetraloop.
Sequence of transferrin receptor (TfR, CD71), native on human cells (P02786 whole entry, one chain of several): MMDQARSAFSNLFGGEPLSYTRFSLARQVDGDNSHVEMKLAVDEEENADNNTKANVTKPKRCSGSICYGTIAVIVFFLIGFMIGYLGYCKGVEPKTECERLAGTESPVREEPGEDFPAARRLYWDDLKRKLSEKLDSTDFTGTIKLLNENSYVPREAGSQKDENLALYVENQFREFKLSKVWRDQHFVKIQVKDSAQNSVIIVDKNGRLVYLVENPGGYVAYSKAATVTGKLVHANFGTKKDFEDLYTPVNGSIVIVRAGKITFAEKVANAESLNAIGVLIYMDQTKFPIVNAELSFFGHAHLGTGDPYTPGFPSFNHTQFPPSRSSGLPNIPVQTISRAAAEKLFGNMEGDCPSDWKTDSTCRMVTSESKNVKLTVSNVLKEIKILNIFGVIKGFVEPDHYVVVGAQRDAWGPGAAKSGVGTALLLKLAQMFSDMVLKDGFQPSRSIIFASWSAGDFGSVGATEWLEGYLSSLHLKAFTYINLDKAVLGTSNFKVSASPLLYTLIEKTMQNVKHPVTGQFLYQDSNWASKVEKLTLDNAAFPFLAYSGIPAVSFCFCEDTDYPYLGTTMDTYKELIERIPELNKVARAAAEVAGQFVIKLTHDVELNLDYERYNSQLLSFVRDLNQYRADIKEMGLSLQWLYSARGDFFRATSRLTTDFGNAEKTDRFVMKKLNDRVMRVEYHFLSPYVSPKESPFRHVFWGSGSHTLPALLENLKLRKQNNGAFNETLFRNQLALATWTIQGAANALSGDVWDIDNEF
Description: Following a 1 hour incubation at 37° C., the cells were washed twice with 1 mL FACS buffer and then resuspended in 500 μL FACS buffer containing 7AAD to exclude dead cells in the analysis. The apparent binding constant was determined from a fit of the mean fluorescence versus the aptamer concentration using the Eq. 1 above.

Series [2] concerns the target transferrin receptor (TfR, CD71), recombinant from pAcGP67A-TfR (Homo sapiens, UniProt P02786 P02786:121-760). The series can be described thus: filter; DPBS with Mg2+ and Ca2+, room temperature, 30 min. Conditions: tags: His-tag; expressed in Sf9 insect cells, plasmid pAcGP67A-TfR (Addgene); chain copies: 2 inferred; label: 32P (filter), AF488 or Atto647N (cells); stem with 12-nt asymmetric bulge, C-rich bulge, GNRA tetraloop.

Sequence of transferrin receptor (TfR, CD71), recombinant from pAcGP67A-TfR (P02786 121-760, one chain of several): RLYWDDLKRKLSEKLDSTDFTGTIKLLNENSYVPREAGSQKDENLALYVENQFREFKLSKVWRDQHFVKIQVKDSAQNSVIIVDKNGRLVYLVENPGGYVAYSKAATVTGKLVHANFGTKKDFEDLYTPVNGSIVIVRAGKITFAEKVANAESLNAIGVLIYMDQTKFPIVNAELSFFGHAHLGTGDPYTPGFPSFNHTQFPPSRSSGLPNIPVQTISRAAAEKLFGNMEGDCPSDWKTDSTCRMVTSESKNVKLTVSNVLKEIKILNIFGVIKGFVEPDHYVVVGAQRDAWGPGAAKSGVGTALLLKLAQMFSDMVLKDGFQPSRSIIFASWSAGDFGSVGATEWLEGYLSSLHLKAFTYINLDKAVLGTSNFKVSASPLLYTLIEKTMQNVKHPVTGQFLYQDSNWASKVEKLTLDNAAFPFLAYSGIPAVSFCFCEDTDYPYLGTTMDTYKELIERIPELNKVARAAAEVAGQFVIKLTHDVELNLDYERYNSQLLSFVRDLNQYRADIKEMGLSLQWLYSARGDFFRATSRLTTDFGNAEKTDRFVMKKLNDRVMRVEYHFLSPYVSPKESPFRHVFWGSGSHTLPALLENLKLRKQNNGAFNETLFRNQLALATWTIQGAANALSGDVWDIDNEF

Take GGGGGAUCAAUCCAAGGGACCCGGAAACGCUCCCUUACACCCC (ssRNA, 2'-F pyrimidines; 3' idT; 5' thiol C6) [c2.min]: the Kd in series [1] came to 104 nM; in series [2], 102 nM.
